According to patent US8709741B2, “Methods of diagnosing a plasmodium infection” (priority 2009, dated 2014):

Experiments:
[1] = system: P. falciparum-infected erythrocytes; assay: Hydrolysis of serum-derived and Albumax II-derived parasite cultures (NEFA); type: cell-based, human; conditions: 50 nM, 6 h, schizont-enriched culture
Protocol: Parasites were grown in medium containing either 8% human serum (iRBC/S) or 0.5% Albumax II® (iRBC/A). Cultures were semi-synchronized so that they contain mainly mature parasites at the time of the experiment. Both cultures (2.5-3% parasitaemia) were then washed and cells were re-suspended at 50% haematocrit in RPMI 0.05% BSA with or without 50 nM of recombinant GX sPLA2, and incubated for 6 h in culture conditions. Non-infected RBCs (red blood cells) and human serum were processed similarly. Cell supernatants and serum were frozen at −20° C.; erythrocyte ghosts were prepared and frozen. NEFAs in each sample were measured in duplicate upon thawing, using the NEFA-C kit (WAKO). NEFA amount in healthy RBCs (RBC) and in infected cultures (iRBC) is expressed as the sum of NEFAs from paired ghosts and supernatants. Values are the mean of the duplicate measurement, subtracted for values in the absence of enzyme. The experiment was repeated twice and gave similar qualitative results. Results from one experiment are shown;
Parasites were grown for several cycles in culture medium supplemented either with 8% human serum or with 0.5% Albumax II®. Cultures were semi-synchronized by Sorbitol treatment 2-3 days prior to the experiment. […] NEFAs were measured using the NEFA-C kit (WAKO). […]

[2] = system: P. falciparum-infected erythrocytes; assay: GX sPLA2 lipolysis of infected red blood cells, young and mature stages (NEFA); type: cell-based, human; conditions: no serum, 5 h at 37° C.
Protocol: A semi-synchronous culture of P. falciparum (2.5% parasitaemia) was analysed for sensitivity to GX sPLA2 at early and late development stages. Parasitaemia and stage distribution were determined from Diff-Quick-stained smears. Early stages were processed at t 0 h and late stages were processed 24 h later (t 24 h). Cultures were washed and cells were re-suspended at 50% haematocrit in RPMI 0.05% BSA, and then distributed into wells of a 96-well microplate in the presence or absence of respectively 30.0 nM of GX sPLA2 and 0.2 nM of bee venom sPLA2. Non-infected erythrocytes and human serum were processed similarly, after all samples had been adjusted for same phosphatidylcholine (PC) content. […] NEFAs in each sample were measured in triplicate using the NEFA-C kit (WAKO). […]
A parasite culture was enriched in young parasite stages (rings+early trophozoites) by sorbitol treatment. Parasitaemia (2.5-3%) and stage distribution were determined from Diff-Quick staining of culture smears. […] NEFAs in erythrocyte samples are expressed as the sum of NEFAs from ghosts and corresponding supernatant.
The membranolytic activity of the recombinant GX sPLA2 on RBCs infected by either young (ring/young trophozoite) or mature (late trophozoite/schizont) parasites was analysed. […] Parasite cultures were incubated with GX sPLA2 in the absence of serum for 5 h and NEFA production was measured thereafter. […]

B1: X: recombinant human group X secreted phospholipase A2 (protein, UniProt O15496 43-165, looked up)
Group 10 secretory …: GILELAGTVGCVGPRTPIAYMKYGCFCGLGGHGQPRDAIDWCCHGHDCCYTRAEEAGCSPKTERYSWQCVNQSVLCGPAENKCQELLCKCDQEIANCLAQTEYNLKYLFYPQFLCEPDSPKCD
In the case of B1, the “NEFA release from Albumax II-derived versus serum-derived parasite culture” value [1] is reported as “released at the same rate”, the “membranolytic activity on healthy (non-infected) erythrocytes” value ([2]; 30 nM) is reported as “left intact” and the “membranolytic activity on parasite culture erythrocytes (NEFA release, words)” value ([2]; GX 30 nM, bee venom 0.2 nM) is reported as “induced the release of NEFAs from the parasite culture with predominance for the schizont stages”.
